Measurements as given in patent EP1275713A1.

Biological target: human TLR4 (human) (UniProt O00206)
Assay: BIACORE 3000: TLR4-COS cells (1.7 × 10^5 cells/mL) premixed with 33 µg/mL sCD14(1-307)S286C for 20 minutes, injected over immobilized sCD14(1-356)/LPS

UniProt O00206, sequence (O00206 24-839): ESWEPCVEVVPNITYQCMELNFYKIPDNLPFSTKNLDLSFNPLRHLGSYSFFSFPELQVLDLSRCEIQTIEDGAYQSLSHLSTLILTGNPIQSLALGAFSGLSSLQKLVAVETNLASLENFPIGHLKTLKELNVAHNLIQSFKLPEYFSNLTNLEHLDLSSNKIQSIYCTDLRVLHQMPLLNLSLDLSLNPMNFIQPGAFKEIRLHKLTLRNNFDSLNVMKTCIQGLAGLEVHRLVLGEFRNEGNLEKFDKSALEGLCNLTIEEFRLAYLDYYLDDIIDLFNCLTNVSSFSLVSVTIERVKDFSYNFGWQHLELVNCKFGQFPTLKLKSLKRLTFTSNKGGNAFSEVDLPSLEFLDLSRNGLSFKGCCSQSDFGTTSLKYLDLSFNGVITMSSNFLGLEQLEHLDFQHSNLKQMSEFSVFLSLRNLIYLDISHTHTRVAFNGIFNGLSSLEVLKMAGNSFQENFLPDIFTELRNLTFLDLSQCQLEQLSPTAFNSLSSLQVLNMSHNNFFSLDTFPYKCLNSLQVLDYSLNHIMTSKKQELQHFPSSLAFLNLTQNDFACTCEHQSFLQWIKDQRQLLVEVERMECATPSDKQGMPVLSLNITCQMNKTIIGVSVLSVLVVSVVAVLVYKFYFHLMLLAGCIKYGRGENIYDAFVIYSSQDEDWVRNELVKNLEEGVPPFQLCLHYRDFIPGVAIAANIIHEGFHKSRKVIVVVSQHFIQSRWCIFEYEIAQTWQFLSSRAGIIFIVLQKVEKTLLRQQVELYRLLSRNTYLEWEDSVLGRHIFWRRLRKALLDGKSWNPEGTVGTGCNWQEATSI

suppression of binding: 100%
B1: sCD14(1-307)S286C (receptor)
chain: TTPEPCELDDEDFRCVCNFSEPQPDWSEAFQCVSAVEVEIHAGGLNLEPFLKRVDADADPRQYADTVKALRVRRLTVGAAQVPAQLLVGALRVLAYSRLKELTLEDLKITGTMPPLPLEATGLALSSLRLRNVSWATGRSWLAELQQWLKPGLKVLSIAQAHSPAFSCEQVRAFPALTSLDLSDNPGLGERGLMAALCPHKFPAIQNLALRNTGMETPTGVCAALAAAGVQPHSLDLSHNSLRATVNPSAPRCMWSSALNSLNLSFAGLEQVPKGLPAKLRVLDLCCNRLNRAPQPDELPEVDNLTL
